In patent US20230159653A1:
Where a chain is given by its changes, count along the chain named. One block for each binder: values may come before it.

Target: ADAM17 (UniProt P78536)
Assay: BLI (Octet Red96, 25 C), antibody captured on anti-human Fab-CH1 (FAB2G) biosensor, antigen in solution

- Kd: 4.9 nM
- koff: 0.0012 s⁻¹
- kon: 240000 M⁻¹ s⁻¹
B1: D5.P2.B3 (Fab, V domains shown)
VH: QVQLQQSGAEVKKPGASVKVSCKASGYTFTGYYMHWVRQAPGQGLEWMGWINGNSGGTNYAQKFQGRVTMTRDTSISTAYMELSRLKSDNTAVYYCASSGSMDVWGQGTLVTVSS
VL: QSVVTQPPSVSGAPGQRVTISCSGSSSNVGRNLVYWYQQLPGAAPRLLIYRNNQRPSGVPDRFSGSKSGTSASLAISGLRSEDEADYYCAAWDDSLSGVVFGGGTKLTVLG

- Kd: 5.3 nM
- koff: 0.0023 s⁻¹
- kon: 430000 M⁻¹ s⁻¹
B2: D5.P1.A4 (Fab, V domains shown)
VH: B1 VH with N54K, N90D, S98R, S99L, G100D, S101R, M102R, V104Y
VL: B1 VL
